Results from the supplement of paper PMC10126150.
± gives the standard deviation of the averaged measurements.

Test system: ATP
Experiment: switch fluorescence ratio, 500 uM ATP over buffer (Cy3 cluster intensity, sum of 5 cycles each) (fold (ratio)); higher = stronger signal-on switching upon ATP binding; sequences stand for … in TCGTCGGCAGCGTCAGATGTGTATAAGAGACAGTTTTTTTTTTTTTTTTTTTTTTTTT…TC
Details: aptamer strand: ATP DNA aptamer (quencher-CACCTGGGGGAGTATTGCGGAGGAAGG + anchor), 100 nM annealed; ATP concentration: 500 uM
Summary of the method: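 Switching-strand clusters labelled with Cy3 on a modified Illumina MiSeq flow-cell were annealed to 100 nM quencher-labelled ATP aptamer, imaged in selection buffer, and re-imaged after 15 min with 500 uM ATP at 22 °C. This was done over five cycles with NaOH stripping and re-annealing in between. The fluorescence ratio is summed target-cycle over summed buffer-cycle Cy3 intensity per cluster, averaged per switch-domain sequence, excluding clusters outside 100-1000 RFU.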
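Further: ATP exposure 15 min at 22 °C before imaging.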

Row | Sequence | switch fluorescence ratio
1 | GGGGTACGCG | 0.984 ± 0.024
2 | GGGGTAGAAG | 1.004 ± 0.0016
3 | GGGGTAGACT | 0.995 ± 0.018
4 | GGGGTAGATG | 0.9985 ± 0.0033
5 | GGGGTAGCGA | 0.992 ± 0.051
6 | GGGGTAGGAC | 1.01 ± 0.017
7 | GGGGTAGGGA | 1 ± 0.019
8 | GGGGTAGGGC | 1.04 ± 0.057
9 | GGGGTAGGTT | 1.02 ± 0.053
10 | GGGGTATCGA | 0.998 ± 0.039
11 | GGGGTATGCT | 1.03 ± 0.032
12 | GGGGTATGTC | 1.02 ± 0.053
13 | GGGGTATGTT | 0.99 ± 0.036
14 | GGGGTATTGA | 1.03 ± 0.037
15 | GGGGTATTGG | 0.993 ± 0.035
16 | GGGGTATTGT | 1.007 ± 0.0034
17 | GGGGTCAGGT | 1 ± 0.024
18 | GGGGTCCTTA | 1 ± 0.018
19 | GGGGTCGATG | 0.9847 ± 0.0042
20 | GGGGTCGGTG | 0.969 ± 0.03
21 | GGGGTGACGT | 1.02 ± 0.031
22 | GGGGTGCTTT | 0.987 ± 0.017
23 | GGGGTGGACG | 1.07 ± 0.021
24 | GGGGTGGATA | 0.996 ± 0.027
25 | GGGGTGGGTG | 1.03 ± 0.039

Row | Sequence | switch fluorescence ratio
26 | GGGGTGTACC | 0.985 ± 0.033
27 | GGGGTGTAGA | 1.02 ± 0.03
28 | GGGGTGTTAG | 1.02 ± 0.012
29 | GGGGTGTTGT | 1 ± 0.04
30 | GGGGTTAAAG | 0.977 ± 0.022
31 | GGGGTTACAG | 1.01 ± 0.013
32 | GGGGTTAGCT | 0.987 ± 0.018
33 | GGGGTTATAG | 1.04 ± 0.12
34 | GGGGTTATTC | 0.986 ± 0.026
35 | GGGGTTCACC | 0.957 ± 0.023
36 | GGGGTTCACT | 1.01 ± 0.029
37 | GGGGTTCGTA | 0.966 ± 0.028
38 | GGGGTTGAAA | 0.973 ± 0.083
39 | GGGGTTGAAT | 1.01 ± 0.046
40 | GGGGTTGGCG | 1.117 ± 0.0064
41 | GGGGTTGGGA | 0.971 ± 0.025
42 | GGGGTTGGTC | 1.04 ± 0.048
43 | GGGGTTGGTT | 0.995 ± 0.044
44 | GGGGTTGTCA | 0.99 ± 0.058
45 | GGGGTTGTCT | 1.01 ± 0.072
46 | GGGGTTTAGT | 1.01 ± 0.022
47 | GGGGTTTATC | 1.01 ± 0.04
48 | GGGGTTTCCT | 1.11 ± 0.16
49 | GGGGTTTGAT | 0.996 ± 0.021
50 | GGGGTTTGGA | 0.987 ± 0.024

Row | Sequence | switch fluorescence ratio
51 | GGGGTTTTAA | 0.988 ± 0.02
52 | GGGGTTTTGT | 1.01 ± 0.011
53 | GGGTAAATTG | 1.041 ± 0.0068
54 | GGGTAAATTT | 0.996 ± 0.015
55 | GGGTAACTGG | 1 ± 0.027
56 | GGGTAAGAGT | 1 ± 0.043
57 | GGGTAATGCG | 1.06 ± 0.058
58 | GGGTAATTGA | 0.99 ± 0.032
59 | GGGTACGCAC | 1.82 ± 0.034
60 | GGGTACGGGA | 1.06 ± 0.069
61 | GGGTACGTCA | 1.03 ± 0.071
62 | GGGTACGTCG | 0.996 ± 0.019
63 | GGGTACTATT | 0.982 ± 0.031
64 | GGGTACTGGG | 1 ± 0.034
65 | GGGTAGACTT | 0.996 ± 0.013
66 | GGGTAGGATA | 1.01 ± 0.012
67 | GGGTAGGCTT | 0.965 ± 0.023
68 | GGGTAGTCGG | 0.993 ± 0.032
69 | GGGTAGTGCG | 0.9812 ± 0.0055
70 | GGGTATCCGT | 0.979 ± 0.032
71 | GGGTATGGTA | 1 ± 0.023
72 | GGGTATGTA | 1.01 ± 0.03
73 | GGGTATTGTG | 0.994 ± 0.033
74 | GGGTATTTGT | 1 ± 0.03
75 | GGGTATTTTT | 0.994 ± 0.014

Row | Sequence | switch fluorescence ratio
76 | GGGTCACAAA | 0.978 ± 0.01
77 | GGGTCATAGT | 1.012 ± 0.0094
78 | GGGTCATGTT | 1 ± 0.015
79 | GGGTCATTGA | 0.998 ± 0.024
80 | GGGTCCATGA | 1.03 ± 0.05
81 | GGGTCCGAAT | 1.02 ± 0.016
82 | GGGTCGGCCG | 0.983 ± 0.033
83 | GGGTCGGGTA | 1.04 ± 0.017
84 | GGGTCTCAGT | 0.994 ± 0.032
85 | GGGTCTGAGT | 0.9621 ± 0.009
86 | GGGTCTGTTG | 0.975 ± 0.013
87 | GGGTCTTTGG | 0.97 ± 0.023
88 | GGGTGAAAAC | 1.03 ± 0.014
89 | GGGTGAAAGG | 0.996 ± 0.025
90 | GGGTGAAATT | 0.986 ± 0.035
91 | GGGTGAATGG | 0.9976 ± 0.0016
92 | GGGTGAGATC | 1.02 ± 0.012
93 | GGGTGAGGAG | 0.998 ± 0.025
94 | GGGTGAGGTA | 0.97888 ± 0.00072
95 | GGGTGAGGTG | 0.98 ± 0.068
96 | GGGTGATCGG | 0.984 ± 0.023
97 | GGGTGATTTT | 0.992 ± 0.049
98 | GGGTGCTGCC | 1 ± 0.037
99 | GGGTGCTGTG | 1 ± 0.034
100 | GGGTGGACCT | 1.13 ± 0.048

Row | Sequence | switch fluorescence ratio
101 | GGGTGGCAAG | 0.996 ± 0.03
102 | GGGTGGCCTG | 1.03 ± 0.077
103 | GGGTGGGCAT | 1.03 ± 0.013
104 | GGGTGGGCGT | 1.05 ± 0.043
105 | GGGTGGGGTC | 1 ± 0.034
106 | GGGTGGGTGC | 1.02 ± 0.048
107 | GGGTGGTAGG | 1 ± 0.028
108 | GGGTGGTGCT | 0.978 ± 0.021
109 | GGGTGGTTAC | 0.99 ± 0.044
110 | GGGTGTACCT | 1.039 ± 0.0043
111 | GGGTGTGCAT | 1.04 ± 0.016
112 | GGGTGTGGGG | 0.989 ± 0.046
113 | GGGTGTGGGT | 0.965 ± 0.026
114 | GGGTGTTCCT | 0.989 ± 0.039
115 | GGGTGTTTCT | 1.01 ± 0.028
116 | GGGTTAAAGG | 1 ± 0.015
117 | GGGTTAAGTA | 0.993 ± 0.031
118 | GGGTTAATAC | 1.29 ± 0.069
119 | GGGTTAATGG | 0.986 ± 0.011
120 | GGGTTACAGC | 1 ± 0.026
121 | GGGTTATGTT | 0.977 ± 0.024
122 | GGGTTCATTG | 0.974 ± 0.033
123 | GGGTTCTATG | 1.004 ± 0.0042
124 | GGGTTGAGTG | 0.982 ± 0.028
125 | GGGTTGATGA | 1.012 ± 0.0093

Row | Sequence | switch fluorescence ratio
126 | GGGTTGCACG | 0.9936 ± 0.0015
127 | GGGTTGCGGA | 0.966 ± 0.035
128 | GGGTTGCGTA | 1.006 ± 0.0027
129 | GGGTTGGACG | 1.02 ± 0.053
130 | GGGTTGGATG | 0.996 ± 0.025
131 | GGGTTGGGCT | 1 ± 0.03
132 | GGGTTGGTCG | 0.955 ± 0.016
133 | GGGTTGGTGG | 0.992 ± 0.029
134 | GGGTTGGTTT | 1.0207 ± 0.00021
135 | GGGTTGTAAG | 0.986 ± 0.013
136 | GGGTTGTCGA | 0.952 ± 0.011
137 | GGGTTTAATG | 0.96 ± 0.016
138 | GGGTTTAGAA | 0.979 ± 0.049
139 | GGGTTTAGAG | 0.9877 ± 0.0093
140 | GGGTTTAGTA | 0.998 ± 0.02
141 | GGGTTTATGG | 0.987 ± 0.056
142 | GGGTTTCAAG | 1.05 ± 0.04
143 | GGGTTTGAA | 0.988 ± 0.021
144 | GGGTTTGACT | 0.998 ± 0.031
145 | GGGTTTGGAA | 0.961 ± 0.027
146 | GGGTTTGGAT | 0.984 ± 0.025
147 | GGGTTTGGTT | 0.976 ± 0.041
148 | GGGTTTGTAT | 0.979 ± 0.046
149 | GGGTTTGTCA | 1.02 ± 0.029
150 | GGGTTTTAAC | 0.9798 ± 0.0034

Row | Sequence | switch fluorescence ratio
151 | GGGTTTTAGG | 0.999 ± 0.032
152 | GGGTTTTAGT | 1.01 ± 0.029
153 | GGGTTTTATA | 1.016 ± 0.01
154 | GGGTTTTGCT | 0.955 ± 0.028
155 | GGGTTTTGTG | 1.01 ± 0.022
156 | GGGTTTTTGT | 1.04 ± 0.055
157 | GGTAAAGGGA | 1.01 ± 0.036
158 | GGTAAAGGTT | 0.999 ± 0.034
159 | GGTAACACCA | 1.015 ± 0.0095
160 | GGTAACGTAG | 0.991 ± 0.022
161 | GGTAAGATGG | 0.995 ± 0.032
162 | GGTAAGTAGG | 1.03 ± 0.042
163 | GGTAATAAGG | 1.05 ± 0.028
164 | GGTAATGTTT | 1.01 ± 0.014
165 | GGTACAGTTT | 0.975 ± 0.019
166 | GGTACCTTAG | 1.059 ± 0.0087
167 | GGTACCTTTG | 0.9729 ± 0.009
168 | GGTACGTTTT | 1.03 ± 0.024
169 | GGTACTACGG | 1.05 ± 0.017
170 | GGTACTCATC | 1.02 ± 0.052
171 | GGTACTTTGT | 1.03 ± 0.039
172 | GGTAGAAAGG | 1.03 ± 0.093
173 | GGTAGAGGGA | 0.9783 ± 0.0085
174 | GGTAGAGGGT | 0.978 ± 0.066
175 | GGTAGAGGTA | 1.02 ± 0.013

Row | Sequence | switch fluorescence ratio
176 | GGTAGATTCG | 0.994 ± 0.027
177 | GGTAGATTGG | 0.961 ± 0.015
178 | GGTAGATTTT | 0.9792 ± 0.003
179 | GGTAGCAGGG | 1.014 ± 0.0097
180 | GGTAGCCTGC | 1.02 ± 0.023
181 | GGTAGCGAAG | 0.97 ± 0.026
182 | GGTAGCTAAG | 1 ± 0.034
183 | GGTAGGCAGG | 1 ± 0.021
184 | GGTAGGGATA | 1.08 ± 0.11
185 | GGTAGGGGGC | 1.01 ± 0.033
186 | GGTAGTATCC | 1.02 ± 0.025
187 | GGTAGTATTT | 0.996 ± 0.028
188 | GGTAGTGGCT | 0.993 ± 0.01
189 | GGTAGTGGGC | 1.02 ± 0.034
190 | GGTATACTTA | 1.04 ± 0.0075
191 | GGTATAGGGA | 1.01 ± 0.026
192 | GGTATATCTT | 1.01 ± 0.076
193 | GGTATATTAA | 1.02 ± 0.023
194 | GGTATATTAG | 0.99 ± 0.028
195 | GGTATATTTT | 1.03 ± 0.1
196 | GGTATCAGTT | 1.0006 ± 0.0002
197 | GGTATCGCGG | 1 ± 0.023
198 | GGTATCTGTA | 1 ± 0.023
199 | GGTATGCAGG | 0.985 ± 0.026
200 | GGTATGCGCT | 0.9934 ± 0.0049
